Experimental data: patent US20230021388A1 (VELOSBIO, published 2023)
Changes are numbered by the printed parent chain.

B1: Ab1 Fab variant H1 A30I (Fab, V domains shown)
VH: QVQLQESGPGLVKPSQTLSLTCTVSGYIFTAYNIHWVRQAPGQGLEWMGSFDPYDGGSSYNQKFKDRLTISKDTSKNQVVLTMTNMDPVDTATYYCARGWYYFDYWGHGTLVTVSS
VL: DIVMTQTPLSLPVTPGEPASISCRASKSISKYLAWYQQKPGQAPRLLIYSGSTLQSGIPPRFSGSGYGTDFTLTINNIESEDAAYYFCQQHDESPYTFGEGTKVEIK
notes: Fab
B2: Ab1 Fab variant H2 S68Q (Fab, V domains shown)
VH: B1 VH with I28A, S58Q
VL: B1 VL
notes: Fab
B3: Ab1 Fab variant H3 Y111L (Fab, V domains shown)
VH: B1 VH with I28A, Y101L
VL: B1 VL
notes: Fab
B4: Ab1 Fab variant H1 F31W (Fab, V domains shown)
VH: B1 VH with I28A, F29W
VL: B1 VL
notes: Fab
B5: Ab1 Fab variant H2 K73C (Fab, V domains shown)
VH: B1 VH with I28A, K63C
VL: B1 VL
notes: Fab
B6: Ab1 Fab variant H2 K75G (Fab, V domains shown)
VH: B1 VH with I28A, K65G
VL: B1 VL
notes: Fab
B7: Ab1 Fab variant H2 S68I (Fab, V domains shown)
VH: B1 VH with I28A, S58I
VL: B1 VL
notes: Fab
B8: Ab1 Fab variant H3 A107V (Fab, V domains shown)
VH: B1 VH with I28A, A97V
VL: B1 VL
notes: Fab
B9: Ab1 Fab variant H1 G27T (Fab, V domains shown)
VH: B1 VH with G26T, I28A
VL: B1 VL
notes: Fab
B10: Ab1 Fab variant H2 D59S (Fab, V domains shown)
VH: B1 VH with I28A, D52S
VL: B1 VL
notes: Fab
B11: Ab1 Fab variant H3 Y111A (Fab, V domains shown)
VH: B1 VH with I28A, Y101A
VL: B1 VL
notes: Fab
B12: Ab1 Fab variant H2 K73S (Fab, V domains shown)
VH: B1 VH with I28A, K63S
VL: B1 VL
notes: Fab
B13: Ab1 Fab variant H1 N40K (Fab, V domains shown)
VH: B1 VH with I28A, N33K
VL: B1 VL
notes: Fab
B14: Ab1 Fab variant H2 S68E (Fab, V domains shown)
VH: B1 VH with I28A, S58E
VL: B1 VL
notes: Fab
B15: Ab1 Fab variant H3 R108G (Fab, V domains shown)
VH: B1 VH with I28A, R98G
VL: B1 VL
notes: Fab
B16: Ab1 Fab variant H2 F58P (Fab, V domains shown)
VH: B1 VH with I28A, F51P
VL: B1 VL
notes: Fab
B17: Ab1 Fab variant H1 G27D (Fab, V domains shown)
VH: B1 VH with G26D, I28A
VL: B1 VL
notes: Fab
B18: Ab1 Fab variant H2 G67H (Fab, V domains shown)
VH: B1 VH with I28A, G57H
VL: B1 VL
notes: Fab
B19: Ab1 Fab variant H2 D65N (Fab, V domains shown)
VH: B1 VH with I28A, D55N
VL: B1 VL
notes: Fab
B20: Ab1 Fab variant H1 G27R (Fab, V domains shown)
VH: B1 VH with G26R, I28A
VL: B1 VL
notes: Fab
B21: Ab1 Fab variant H1 F31L (Fab, V domains shown)
VH: B1 VH with I28A, F29L
VL: B1 VL
notes: Fab
B22: Ab1 Fab variant H1 A30R (Fab, V domains shown)
VH: B1 VH with I28R
VL: B1 VL
notes: Fab
B23: Ab1 Fab variant H2 P60G (Fab, V domains shown)
VH: B1 VH with I28A, P53G
VL: B1 VL
notes: Fab
B24: Ab1 Fab variant H1 T32D (Fab, V domains shown)
VH: B1 VH with I28A, T30D
VL: B1 VL
notes: Fab
B25: Ab1 Fab variant H2 D65T (Fab, V domains shown)
VH: B1 VH with I28A, D55T
VL: B1 VL
notes: Fab
B26: Ab1 Fab variant H3 A107T (Fab, V domains shown)
VH: B1 VH with I28A, A97T
VL: B1 VL
notes: Fab
B27: Ab1 Fab variant H1 Y29K (Fab, V domains shown)
VH: B1 VH with Y27K, I28A
VL: B1 VL
notes: Fab
B28: Ab1 Fab variant H2 K75A (Fab, V domains shown)
VH: B1 VH with I28A, K65A
VL: B1 VL
notes: Fab
B29: Ab1 Fab variant H1 Y29S (Fab, V domains shown)
VH: B1 VH with Y27S, I28A
VL: B1 VL
notes: Fab
B30: Ab1 Fab variant H3 F136L (Fab, V domains shown)
VH: B1 VH with I28A, F103L
VL: B1 VL
notes: Fab
B31: Ab1 Fab variant H2 G67S (Fab, V domains shown)
VH: B1 VH with I28A, G57S
VL: B1 VL
notes: Fab
B32: Ab1 Fab variant H2 P60T (Fab, V domains shown)
VH: B1 VH with I28A, P53T
VL: B1 VL
notes: Fab
B33: Ab1 Fab variant H2 G67M (Fab, V domains shown)
VH: B1 VH with I28A, G57M
VL: B1 VL
notes: Fab

Each binder was assayed against T1, recombinant human ROR1 extracellular domain (human, UniProt Q01973 30-406) (assay: capture filter lift).
T1 construct: biotinylated for the filter lifts; also called huROR1-ECD; human ROR1-ECD
T1 sequence (Q01973 30-406 limits assumed): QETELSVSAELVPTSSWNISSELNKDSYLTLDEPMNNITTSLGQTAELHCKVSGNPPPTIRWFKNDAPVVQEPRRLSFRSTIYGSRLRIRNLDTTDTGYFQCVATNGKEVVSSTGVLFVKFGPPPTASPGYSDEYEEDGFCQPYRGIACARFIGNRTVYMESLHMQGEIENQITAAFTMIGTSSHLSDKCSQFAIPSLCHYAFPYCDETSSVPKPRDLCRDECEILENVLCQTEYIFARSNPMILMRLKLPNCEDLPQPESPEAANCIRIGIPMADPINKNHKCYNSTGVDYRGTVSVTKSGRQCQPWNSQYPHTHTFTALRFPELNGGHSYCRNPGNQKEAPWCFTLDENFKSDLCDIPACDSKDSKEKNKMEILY
Description: Subsequently, the filter was applied to the agar plates as described above. For detection of antigen binding, the filter was rinsed briefly in PBS, and transferred to biotinylated huROR1-ECD (ACROBiosystems, cat. #RO1-H522y) in 5% M-P.
Filters were incubated with 2.3 nM biotinylated ROR1 diluted in 5% M-P for 2 h at 25° C. with constant agitation, and washed 5 times, 2 minutes each wash, with constant agitation in PBS-T. Alternatively, filters were washed more rapidly using a squirt bottle and sintered glass funnel for vacuum filtration. The filters were transferred to 10 mL of High Sensitivity Neutravidin, HRP conjugate (Thermo Scientific, cat. #31030) diluted 5000-fold in 1% BSA in PBS and incubated for 1 h at 25° C. The filters were then washed 5 times in PBS-T and were developed with 1-Step Ultra TMB-Blotting.
All libraries were initially screened by capture lift to identify variants with improved binding. The capture lift assay, described in Example 1, enables the filter lift assay to discern variants that bind antigen more strongly based on the staining intensity. In order to determine the optimal concentration of antigen to use for screening, biotinylated huROR1-ECD was titrated on a capture lift of Ab1 Fab. Binding to Ab1 was clearly visible at antigen concentrations ≥23 nM and the signal was diminished at lower huROR1 concentrations. […] In addition, for more stringent screening, filters were probed with lower concentrations of antigen and/or development of the filter was terminated earlier, before the Ab1 staining was visible. […] In this example, approximately 250 library variants were plated. Twelve variants clearly bound huROR1 (FIG. 4, numbered).
B1: binds.
B2: binds.
B3: binds.
B4: binds.
B5: binds.
B6: binds.
B7: binds.
B8: binds.
B9: binds.
B10: binds.
B11: binds.
B12: binds.
B13: binds.
B14: binds.
B15: binds.
B16: binds.
B17: binds.
B18: binds.
B19: binds.
B20: binds.
B21: binds.
B22: binds.
B23: binds.
B24: binds.
B25: binds.
B26: binds.
B27: binds.
B28: binds.
B29: binds.
B30: binds.
B31: binds.
B32: binds.
B33: binds.
